Experimental findings from paper PMC6247401, “Macrophage LRP1 Promotes Diet-Induced Hepatic Inflammation and Metabolic Dysfunction by Modulating Wnt Signaling” (Mediators of Inflammation, 2018) are described below.

The target of this experiment is T1, low-density lipoprotein receptor-related protein 1 (LRP1) (UniProt Q07954 20-4544).
T1 construct: low-density lipoprotein receptor-related protein 1 (LRP1), full length, purified from placenta; also called full-length LRP1; purified LRP1
The experiment can be described thus: SPR; Biacore 3000; full-length LRP1 amine-coupled to a CM5 chip; sFRP-5 (1.6-100 nmol/l) flowed over at 20 ul/min, 25°C, in HBS-P (0.01 M HEPES pH 7.4, 0.15 M NaCl, 0.005% P20) with 1 mM CaCl2; Req from a pseudo-first order fit with a nonspecific component, plotted against concentration and fitted to a single class of sites. The settings on record: both partners purified. Background: SPR reads the build-up and loss of mass on a sensor chip optically.

T1 sequence (Q07954 20-4544): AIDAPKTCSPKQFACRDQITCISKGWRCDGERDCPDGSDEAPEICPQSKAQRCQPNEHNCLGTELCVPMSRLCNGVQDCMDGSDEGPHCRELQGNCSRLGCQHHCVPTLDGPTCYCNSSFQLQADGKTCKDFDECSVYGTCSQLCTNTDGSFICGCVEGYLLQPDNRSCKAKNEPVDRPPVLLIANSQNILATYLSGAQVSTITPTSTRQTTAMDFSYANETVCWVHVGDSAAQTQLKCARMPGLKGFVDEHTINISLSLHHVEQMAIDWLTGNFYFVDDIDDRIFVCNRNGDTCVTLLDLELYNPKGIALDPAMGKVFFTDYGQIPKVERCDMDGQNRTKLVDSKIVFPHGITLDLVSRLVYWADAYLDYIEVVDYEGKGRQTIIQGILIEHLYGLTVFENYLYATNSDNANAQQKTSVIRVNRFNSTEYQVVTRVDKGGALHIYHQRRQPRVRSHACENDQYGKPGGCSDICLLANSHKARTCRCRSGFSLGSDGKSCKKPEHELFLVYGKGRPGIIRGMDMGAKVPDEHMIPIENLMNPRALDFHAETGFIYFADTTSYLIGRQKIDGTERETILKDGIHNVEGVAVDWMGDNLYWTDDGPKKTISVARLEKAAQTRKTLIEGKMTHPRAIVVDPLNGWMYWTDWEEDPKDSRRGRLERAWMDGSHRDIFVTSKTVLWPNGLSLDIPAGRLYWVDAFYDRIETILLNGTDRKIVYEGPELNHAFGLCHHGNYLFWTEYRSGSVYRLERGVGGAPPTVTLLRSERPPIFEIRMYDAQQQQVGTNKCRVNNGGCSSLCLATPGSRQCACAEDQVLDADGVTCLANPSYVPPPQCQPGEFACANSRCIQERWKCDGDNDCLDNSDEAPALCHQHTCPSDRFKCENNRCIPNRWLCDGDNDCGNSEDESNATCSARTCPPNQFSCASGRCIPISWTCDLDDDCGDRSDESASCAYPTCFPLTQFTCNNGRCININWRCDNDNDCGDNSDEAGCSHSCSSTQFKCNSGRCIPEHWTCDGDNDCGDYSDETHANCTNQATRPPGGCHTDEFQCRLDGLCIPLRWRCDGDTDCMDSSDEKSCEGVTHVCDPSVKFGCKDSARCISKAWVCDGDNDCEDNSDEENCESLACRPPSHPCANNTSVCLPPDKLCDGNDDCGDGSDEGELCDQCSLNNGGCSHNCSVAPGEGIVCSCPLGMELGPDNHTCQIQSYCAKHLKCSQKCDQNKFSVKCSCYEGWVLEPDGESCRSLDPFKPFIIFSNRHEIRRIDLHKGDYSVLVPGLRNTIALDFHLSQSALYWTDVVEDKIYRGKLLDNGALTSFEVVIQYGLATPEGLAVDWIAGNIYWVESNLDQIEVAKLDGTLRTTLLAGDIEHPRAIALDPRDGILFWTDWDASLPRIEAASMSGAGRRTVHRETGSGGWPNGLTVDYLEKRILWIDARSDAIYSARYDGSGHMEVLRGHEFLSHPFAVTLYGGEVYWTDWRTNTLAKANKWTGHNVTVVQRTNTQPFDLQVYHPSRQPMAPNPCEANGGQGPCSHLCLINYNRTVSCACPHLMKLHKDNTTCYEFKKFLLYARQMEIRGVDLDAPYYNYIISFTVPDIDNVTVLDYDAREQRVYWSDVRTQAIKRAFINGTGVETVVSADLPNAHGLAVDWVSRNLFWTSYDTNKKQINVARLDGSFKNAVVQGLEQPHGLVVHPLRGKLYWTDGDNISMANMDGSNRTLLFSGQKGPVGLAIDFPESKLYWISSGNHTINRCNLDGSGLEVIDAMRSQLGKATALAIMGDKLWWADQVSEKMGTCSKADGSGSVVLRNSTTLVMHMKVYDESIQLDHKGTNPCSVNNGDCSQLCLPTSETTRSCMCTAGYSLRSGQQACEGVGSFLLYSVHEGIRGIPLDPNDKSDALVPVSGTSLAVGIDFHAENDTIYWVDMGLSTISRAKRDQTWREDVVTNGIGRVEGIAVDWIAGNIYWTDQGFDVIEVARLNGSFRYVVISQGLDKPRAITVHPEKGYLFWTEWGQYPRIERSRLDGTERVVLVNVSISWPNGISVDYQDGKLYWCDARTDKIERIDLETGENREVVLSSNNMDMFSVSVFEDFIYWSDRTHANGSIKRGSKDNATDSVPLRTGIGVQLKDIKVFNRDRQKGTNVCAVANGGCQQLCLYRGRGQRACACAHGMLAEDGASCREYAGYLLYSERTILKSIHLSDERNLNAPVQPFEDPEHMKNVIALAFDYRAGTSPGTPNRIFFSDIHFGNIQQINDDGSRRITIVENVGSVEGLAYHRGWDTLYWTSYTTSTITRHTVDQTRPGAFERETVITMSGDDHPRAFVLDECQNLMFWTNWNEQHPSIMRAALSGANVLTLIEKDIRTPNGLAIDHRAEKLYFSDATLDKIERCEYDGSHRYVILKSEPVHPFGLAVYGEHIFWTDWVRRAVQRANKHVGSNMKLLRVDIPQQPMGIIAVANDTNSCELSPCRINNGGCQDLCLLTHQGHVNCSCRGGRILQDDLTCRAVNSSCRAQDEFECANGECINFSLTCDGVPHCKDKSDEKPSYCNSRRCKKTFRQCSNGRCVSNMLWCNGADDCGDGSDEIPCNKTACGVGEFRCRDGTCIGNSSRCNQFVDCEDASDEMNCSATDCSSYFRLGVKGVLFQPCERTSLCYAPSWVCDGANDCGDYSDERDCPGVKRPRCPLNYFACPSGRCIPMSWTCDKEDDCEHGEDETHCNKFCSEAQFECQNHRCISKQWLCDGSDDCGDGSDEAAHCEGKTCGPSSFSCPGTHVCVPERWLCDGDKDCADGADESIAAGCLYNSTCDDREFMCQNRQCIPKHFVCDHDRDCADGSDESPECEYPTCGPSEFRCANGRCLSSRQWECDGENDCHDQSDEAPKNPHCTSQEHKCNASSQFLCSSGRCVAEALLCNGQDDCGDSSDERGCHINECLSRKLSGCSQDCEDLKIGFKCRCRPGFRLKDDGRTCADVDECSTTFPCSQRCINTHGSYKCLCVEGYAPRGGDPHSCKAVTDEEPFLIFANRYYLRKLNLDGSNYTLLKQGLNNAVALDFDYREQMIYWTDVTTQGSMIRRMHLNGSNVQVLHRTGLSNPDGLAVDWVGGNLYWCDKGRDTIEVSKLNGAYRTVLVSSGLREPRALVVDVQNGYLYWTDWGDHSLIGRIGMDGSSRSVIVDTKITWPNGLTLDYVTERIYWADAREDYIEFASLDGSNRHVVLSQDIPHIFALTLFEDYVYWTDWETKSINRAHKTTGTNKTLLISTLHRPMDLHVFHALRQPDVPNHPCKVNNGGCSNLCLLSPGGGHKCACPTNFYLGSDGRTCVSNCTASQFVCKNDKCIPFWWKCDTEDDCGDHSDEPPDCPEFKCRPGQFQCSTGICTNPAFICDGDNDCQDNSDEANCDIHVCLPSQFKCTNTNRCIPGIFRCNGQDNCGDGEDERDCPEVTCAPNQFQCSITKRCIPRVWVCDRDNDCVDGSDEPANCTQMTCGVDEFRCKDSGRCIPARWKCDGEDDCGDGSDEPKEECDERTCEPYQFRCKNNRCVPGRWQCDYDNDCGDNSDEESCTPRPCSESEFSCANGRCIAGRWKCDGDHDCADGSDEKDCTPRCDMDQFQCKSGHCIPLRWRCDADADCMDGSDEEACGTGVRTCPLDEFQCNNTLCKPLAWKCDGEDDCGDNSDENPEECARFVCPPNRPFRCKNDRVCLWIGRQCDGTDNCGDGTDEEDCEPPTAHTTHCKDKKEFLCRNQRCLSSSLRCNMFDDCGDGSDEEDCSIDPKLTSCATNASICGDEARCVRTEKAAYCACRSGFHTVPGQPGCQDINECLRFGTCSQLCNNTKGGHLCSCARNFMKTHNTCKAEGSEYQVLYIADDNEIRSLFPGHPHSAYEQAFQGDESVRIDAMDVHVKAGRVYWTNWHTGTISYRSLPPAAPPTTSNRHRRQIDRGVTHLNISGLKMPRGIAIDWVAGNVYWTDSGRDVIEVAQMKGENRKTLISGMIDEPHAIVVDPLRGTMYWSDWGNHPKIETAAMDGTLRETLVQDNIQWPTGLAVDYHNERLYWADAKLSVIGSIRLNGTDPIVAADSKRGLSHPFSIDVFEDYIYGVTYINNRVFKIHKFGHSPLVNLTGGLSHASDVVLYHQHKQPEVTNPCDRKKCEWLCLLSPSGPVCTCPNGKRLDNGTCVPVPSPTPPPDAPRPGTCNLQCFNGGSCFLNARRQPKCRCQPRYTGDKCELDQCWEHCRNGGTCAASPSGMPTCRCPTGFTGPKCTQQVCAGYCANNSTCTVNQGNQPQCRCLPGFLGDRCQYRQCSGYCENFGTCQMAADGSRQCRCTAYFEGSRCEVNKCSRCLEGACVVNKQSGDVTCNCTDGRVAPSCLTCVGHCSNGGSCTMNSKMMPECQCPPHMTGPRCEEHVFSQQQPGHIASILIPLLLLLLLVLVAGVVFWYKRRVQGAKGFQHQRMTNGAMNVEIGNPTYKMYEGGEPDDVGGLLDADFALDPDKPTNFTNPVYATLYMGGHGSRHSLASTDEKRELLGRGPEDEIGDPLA

B1: secreted frizzled-related protein 5 (sFRP-5) (ligand, UniProt Q5T4F7 30-317, looked up)
chain: EEYDYYGWQAEPLHGRSYSKPPQCLDIPADLPLCHTVGYKRMRLPNLLEHESLAEVKQQASSWLPLLAKRCHSDTQVFLCSLFAPVCLDRPIYPCRSLCEAVRAGCAPLMEAYGFPWPEMLHCHKFPLDNDLCIAVQFGHLPATAPPVTKICAQCEMEHSADGLMEQMCSSDFVVKMRIKEIKIENGDRKLIGAQKKKKLLKPGPLKRKDTKRLVLHMKNGAGCPCPQLDSLAGSFLVMGRKVDGQLLLMAVYRWDKKNKEMKFAVKFMFSYPCSLYYPFFYGAAEPH
notes: secreted frizzled-related protein 5 (sFRP-5), commercial recombinant protein; source: bought: R&D Systems 6266-SF-050
A word on the Kd: it is the equilibrium constant for the complex coming apart. Higher therefore signals lower affinity. Molecule B1 had a Kd of 32 nM.
